Reference: IntAct's records for PubMed 31515488

B1: Serine/threonine-protein kinase PAK 5 (Homo sapiens), Q9P286 (parent)
chain: MFGKKKKKIEISGPSNFEHRVHTGFDPQEQKFTGLPQQWHSLLADTANRPKPMVDPSCITPIQLAPMKTIVRGNKPCKETSINGLLEDFDNISVTRSNSLRKESPPTPDQGASSHGPGHAEENGFITFSQYSSESDTTADYTTEKYREKSLYGDDLDPYYRGSHAAKQNGHVMKMKHGEAYYSEVKPLKSDFARFSADYHSHLDSLSKPSEYSDLKWEYQRASSSSPLDYSFQFTPSRTAGTSGCSKESLAYSESEWGPSLDDYDRRPKSSYLNQTSPQPTMRQRSRSGSGLQEPMMPFGASAFKTHPQGHSYNSYTYPRLSEPTMCIPKVDYDRAQMVLSPPLSGSDTYPRGPAKLPQSQSKSGYSSSSHQYPSGYHKATLYHHPSLQSSSQYISTASYLSSLSLSSSTYPPPSWGSSSDQQPSRVSHEQFRAALQLVVSPGDPREYLANFIKIGEGSTGIVCIATEKHTGKQVAVKKMDLRKQQRRELLFNEVVIMRDYHHDNVVDMYSSYLVGDELWVVMEFLEGGALTDIVTHTRMNEEQIATVCLSVLRALSYLHNQGVIHRDIKSDSILLTSDGRIKLSDFGFCAQVSKEVPKRKSLVGTPYWMAPEVISRLPYGTEVDIWSLGIMVIEMIDGEPPYFNEPPLQAMRRIRDSLPPRVKDLHKVSSVLRGFLDLMLVREPSQRATAQELLGHPFLKLAGPPSCIVPLMRQYRHH
partner: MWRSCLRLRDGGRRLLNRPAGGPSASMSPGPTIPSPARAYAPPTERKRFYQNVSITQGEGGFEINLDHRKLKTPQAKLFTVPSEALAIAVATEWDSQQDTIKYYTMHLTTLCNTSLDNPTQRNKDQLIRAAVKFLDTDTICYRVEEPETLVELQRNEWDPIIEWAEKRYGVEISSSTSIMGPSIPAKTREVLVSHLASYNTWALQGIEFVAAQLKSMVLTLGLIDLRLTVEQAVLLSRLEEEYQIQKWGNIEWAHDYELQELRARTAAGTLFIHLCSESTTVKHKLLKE
B2: Peroxisomal biogenesis factor 19 (Homo sapiens), P40855 (parent)
chain: MAAAEEGCSVGAEADRELEELLESALDDFDKAKPSPAPPSTTTAPDASGPQKRSPGDTAKDALFASQEKFFQELFDSELASQATAEFEKAMKELAEEEPHLVEQFQKLSEAAGRVGSDMTSQQEFTSCLKETLSGLAKNATDLQNSSMSEEELTKAMEGLGMDEGDGEGNILPIMQSIMQNLLSKDVLYPSLKEITEKYPEWLQSHRESLPPEQFEKYQEQHSVMCKICEQFEAETPTDSETTQKARFEMVLDLMQQLQDLGHPPKELAGEMPPGLNFDLDALNLSGPPGASGEQCLIM
partner: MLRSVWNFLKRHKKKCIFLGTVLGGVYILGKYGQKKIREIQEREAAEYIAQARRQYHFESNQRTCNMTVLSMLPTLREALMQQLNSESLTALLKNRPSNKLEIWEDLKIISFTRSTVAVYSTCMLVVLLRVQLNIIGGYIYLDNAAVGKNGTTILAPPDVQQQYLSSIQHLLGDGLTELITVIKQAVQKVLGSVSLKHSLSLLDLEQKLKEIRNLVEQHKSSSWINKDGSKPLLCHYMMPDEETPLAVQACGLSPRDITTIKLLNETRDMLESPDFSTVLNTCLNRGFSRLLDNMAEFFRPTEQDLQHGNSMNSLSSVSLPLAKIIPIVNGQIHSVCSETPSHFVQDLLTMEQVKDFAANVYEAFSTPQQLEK
B3: Isoform 1 of 1-aminocyclopropane-1-carboxylate synthase-like protein 1 (Homo sapiens), Q96QU6-1 (parent)
chain: MFTLPQKDFRAPTTCLGPTCMQDLGSSHGEDLEGECSRKLDQKLPELRGVGDPAMISSDTSYLSSRGRMIKWFWDSAEEGYRTYHMDEYDEDKNPSGIINLGTSENKLCFDLLSWRLSQRDMQRVEPSLLQYADWRGHLFLREEVAKFLSFYCKSPVPLRPENVVVLNGGASLFSALATVLCEAGEAFLIPTPYYGAITQHVCLYGNIRLAYVYLDSEVTGLDTRPFQLTVEKLEMALREAHSEGVKVKGLILISPQNPLGDVYSPEELQEYLVFAKRHRLHVIVDEVYMLSVFEKSVGYRSVLSLERLPDPQRTHVMWATSKDFGMSGLRFGTLYTENQDVATAVASLCRYHGLSGLVQYQMAQLLRDRDWINQVYLPENHARLKAAHTYVSEELRALGIPFLSRGAGFFIWVDLRKYLPKGTFEEEMLLWRRFLDNKVLLSFGKAFECKEPGWFRFVFSDQVHRLCLGMQRVQQVLAGKSQVAEDPRPSQSQEPSDQRR
partner: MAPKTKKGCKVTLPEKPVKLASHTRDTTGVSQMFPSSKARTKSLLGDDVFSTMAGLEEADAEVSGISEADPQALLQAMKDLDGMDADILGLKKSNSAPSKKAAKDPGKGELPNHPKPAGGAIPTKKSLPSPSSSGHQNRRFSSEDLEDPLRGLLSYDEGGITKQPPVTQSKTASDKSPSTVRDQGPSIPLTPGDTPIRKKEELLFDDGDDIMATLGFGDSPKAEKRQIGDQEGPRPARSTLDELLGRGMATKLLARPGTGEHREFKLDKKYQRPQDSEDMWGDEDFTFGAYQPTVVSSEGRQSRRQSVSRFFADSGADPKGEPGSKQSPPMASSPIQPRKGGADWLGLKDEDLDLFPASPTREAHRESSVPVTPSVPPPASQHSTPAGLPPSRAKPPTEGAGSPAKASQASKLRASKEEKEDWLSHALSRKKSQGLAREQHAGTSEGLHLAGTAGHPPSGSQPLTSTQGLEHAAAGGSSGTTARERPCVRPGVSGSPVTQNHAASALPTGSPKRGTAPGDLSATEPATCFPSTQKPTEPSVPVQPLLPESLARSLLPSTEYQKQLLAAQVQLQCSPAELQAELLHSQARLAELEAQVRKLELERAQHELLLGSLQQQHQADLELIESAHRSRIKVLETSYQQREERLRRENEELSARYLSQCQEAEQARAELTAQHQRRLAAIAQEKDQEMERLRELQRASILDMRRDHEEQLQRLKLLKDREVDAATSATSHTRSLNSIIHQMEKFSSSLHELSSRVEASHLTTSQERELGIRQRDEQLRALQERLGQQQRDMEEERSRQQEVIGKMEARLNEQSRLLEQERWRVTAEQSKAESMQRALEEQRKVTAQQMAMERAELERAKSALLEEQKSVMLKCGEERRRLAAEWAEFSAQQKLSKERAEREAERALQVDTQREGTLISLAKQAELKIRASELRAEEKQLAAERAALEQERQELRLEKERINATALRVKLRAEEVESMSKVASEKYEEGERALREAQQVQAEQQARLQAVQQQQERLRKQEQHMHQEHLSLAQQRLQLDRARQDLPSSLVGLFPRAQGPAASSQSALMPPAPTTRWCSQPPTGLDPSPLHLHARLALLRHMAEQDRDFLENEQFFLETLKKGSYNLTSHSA
B4: Tuftelin-interacting protein 11 (Homo sapiens), Q9UBB9 (parent)
chain: MSLSHLYRDGEGRIDDDDDERENFEITDWDLQNEFNPNRQRHWQTKEEATYGVWAERDSDDERPSFGGKRARDYSAPVNFISAGLKKGAAEEAELEDSDDEEKPVKQDDFPKDFGPRKLKTGGNFKPSQKGFAGGTKSFMDFGSWERHTKGIGQKLLQKMGYVPGRGLGKNAQGIINPIEAKQRKGKGAVGAYGSERTTQSMQDFPVVDSEEEAEEEFQKELSQWRKDPSGSKKKPKYSYKTVEELKAKGRISKKLTAPQKELSQVKVIDMTGREQKVYYSYSQISHKHNVPDDGLPLQSQQLPQSGKEAKAPGFALPELEHNLQLLIDLTEQEIIQNDRQLQYERDMVVNLFHELEKMTEVLDHEERVISNLSKVLEMVEECERRMQPDCSNPLTLDECARIFETLQDKYYEEYRMSDRVDLAVAIVYPLMKEYFKEWDPLKDCTYGTEIISKWKSLLENDQLLSHGGQDLSADAFHRLIWEVWMPFVRNIVTQWQPRNCDPMVDFLDSWVHIIPVWILDNILDQLIFPKLQKEVENWNPLTDTVPIHSWIHPWLPLMQARLEPLYSPIRSKLSSALQKWHPSDSSAKLILQPWKDVFTPGSWEAFMVKNIVPKLGMCLGELVINPHQQHMDAFYWVIDWEGMISVSSLVGLLEKHFFPKWLQVLCSWLSNSPNYEEITKWYLGWKSMFSDQVLAHPSVKDKFNEALDIMNRAVSSNVGAYMQPGARENIAYLTHTERRKDFQYEAMQERREAENMAQRGIGVAASSVPMNFKDLIETKAEEHNIVFMPVIGKRHEGKQLYTFGRIVIYIDRGVVFVQGEKTWVPTSLQSLIDMAK
partner: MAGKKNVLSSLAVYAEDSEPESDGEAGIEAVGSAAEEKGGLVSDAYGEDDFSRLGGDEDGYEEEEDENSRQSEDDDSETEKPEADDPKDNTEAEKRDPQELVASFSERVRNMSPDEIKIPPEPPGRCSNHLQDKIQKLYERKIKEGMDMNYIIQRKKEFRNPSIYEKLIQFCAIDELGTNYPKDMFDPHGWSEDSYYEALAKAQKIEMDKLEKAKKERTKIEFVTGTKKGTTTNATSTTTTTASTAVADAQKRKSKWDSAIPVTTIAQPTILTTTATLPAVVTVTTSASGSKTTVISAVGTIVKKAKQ
B5: Isoform 1 of EF-hand domain-containing family member C2 (Homo sapiens), Q5JST6-1 (parent)
chain: MALPLLPGNSFNRNVGKEKFHKSQHWGFCNNVMMLVSDEKPGIGGEPLLGQKIKPKCSIYPKGDGSDVPSWVAFDKQVLSFDAYLEEEVLDKSQTNYRIRYYKIYFYPEDDTIQVNEPEVKNSGLLQGTSIRRHRITLPPPDEDQFYTVYHFNVGTEVVFYGRTFKIYDCDAFTRNFLRKIGVKVNPPVQCPEDPYMKIRREVVEHVEPLRPYESLDTLKQFLQYHGKILCFFCLWDDSVSMFGDRRELILHYFLCDDTIEIKELLPHSSGRDALKMFLRRSKLPKNCPPRVYQPGQITDRAVLNSYGDFIKNQADGYLFDRYKLGKVDQEFYKDSDLSLGVTINVWGRKVLLYDCDEFTKSYYKSKYGIENFTSVSCKPPSPPPKIERKFPPYNGFGSEEDSLRNCIDLKPTPHRRNFKKFMEKDSYGSKSNILRFFAKLVTDKCVDLDRMFVISYYLGDDTISVFEPIERNSGIAGGMFLKRSRVKKPGQEVFKSELSEYIKAEELYIGVTVNVNGYLFRLLNADEYTLNYMEQNTDKYPFSNLKLALQKLKQEEGKSRELKQVFKAADSKHTNMVDYNTFRDILMSLTVGNLAEQEFVTIARHYRVPEGTCSDMDFLIALAHEKFKKNMFENFDTFIYSCVYEDREKKNVLPTKDIKRLCKSSRLPLSDDLLESLLSRFEDSEKQIDYKSFFSALNWRKNPVPELQPASYLKERCEDVWLGMPSPIPAKYIDYWTFLKDAFGLEEE
partner: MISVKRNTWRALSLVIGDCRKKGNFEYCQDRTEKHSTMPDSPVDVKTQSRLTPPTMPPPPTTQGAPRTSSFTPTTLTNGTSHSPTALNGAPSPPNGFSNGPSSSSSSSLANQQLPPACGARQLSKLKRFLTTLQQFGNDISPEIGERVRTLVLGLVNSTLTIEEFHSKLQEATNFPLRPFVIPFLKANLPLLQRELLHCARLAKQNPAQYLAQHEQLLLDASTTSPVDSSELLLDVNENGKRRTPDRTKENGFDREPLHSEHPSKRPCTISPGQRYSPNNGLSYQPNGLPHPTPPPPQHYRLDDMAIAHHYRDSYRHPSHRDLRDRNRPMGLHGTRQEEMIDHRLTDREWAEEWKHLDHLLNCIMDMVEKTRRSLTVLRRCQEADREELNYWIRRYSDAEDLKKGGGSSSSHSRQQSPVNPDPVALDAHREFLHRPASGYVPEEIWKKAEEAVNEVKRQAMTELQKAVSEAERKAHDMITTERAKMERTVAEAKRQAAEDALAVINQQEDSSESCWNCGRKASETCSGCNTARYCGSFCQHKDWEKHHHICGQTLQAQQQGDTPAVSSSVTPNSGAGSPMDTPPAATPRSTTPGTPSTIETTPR

Variants of: B1
Conditions: with atpf2_human ATPAF2, Q8N5M1

Row | effect of a mutation on the interaction | Variant
1 | with no effect | R335P

Variants of: B2
Conditions: with pex3_human PEX3, P56589

Row | effect of a mutation on the interaction | Variant
2 | with no effect | E6K
3 | with no effect | L26I
4 | with no effect | R207G
5 | with no effect | L21V
6 | with no effect | A85V

Variants of: B3
Conditions: with fbf1_human FBF1, Q8TES7

Row | effect of a mutation on the interaction | Variant
7 | with no effect | S393L

Variants of: B3
Conditions: with fbf1_human FBF1, Q8TES7
Remark: another data set of the same source

Row | effect of a mutation on the interaction | Variant
8 | with no effect | D59N

Variants of: B4
Conditions: with SAP30BP

Row | effect of a mutation on the interaction | Variant
9 | with no effect | R8Q
10 | with no effect | S688L

Variants of: B5
Conditions: with mtg8_human RUNX1T1, Q06455

Row | effect of a mutation on the interaction | Variant
11 | with no effect | V376I

Variants of: B5
Conditions: with mtg8_human RUNX1T1, Q06455
Remark: another data set of the same source

Row | effect of a mutation on the interaction | Variant
12 | disrupting interaction strength | N31S
